Experimental data reported in US20060051737A1 (ROCKEFELLER UNIVERSITY, published 2006).

B1: TRF1 (other, human, UniProt P54274 2-439, looked up)
chain: AEDVSSAAPSPRGCADGRDADPTEEQMAETERNDEEQFECQELLECQVQVGAPEEEEEEEEDAGLVAEAEAVAAGWMLDFLCLSLCRAFRDGRSEDFRRTRNSAEAIIHGLSSLTACQLRTIYICQFLTRIAAGKTLDAQFENDERITPLESALMIWGSIEKEHDKLHEEIQNLIKIQAIAVCMENGNFKEAEEVFERIFGDPNSHMPFKSKLLMIISQKDTFHSFFQHFSYNHMMEKIKSYVNYVLSEKSSTFLMKAAAKVVESKRTRTITSQDKPSGNDVEMETEANLDTRKSVSDKQSAVTESSEGTVSLLRSHKNLFLSKLQHGTQQQDLNKKERRVGTPQSTKKKKESRRATESRIPVSKSQPVTPEKHRARKRQAWLWEEDKNLRSGVRKYGEGNWSKILLHYKFNNRTSVMLKDRWRTMKKLKLISSDSED
B2: TRF2 (other, human, UniProt Q15554 1-542, looked up)
chain: MAAGAGTAGPASGPGVVRDPAASQPRKRPGREGGEGARRSDTMAGGGGSSDGSGRAAGRRASRSSGRARRGRHEPGLGGPAERGAGEARLEEAVNRWVLKFYFHEALRAFRGSRYGDFRQIRDIMQALLVRPLGKEHTVSRLLRVMQCLSRIEEGENLDCSFDMEAELTPLESAINVLEMIKTEFTLTEAVVESSRKLVKEAAVIICIKNKEFEKASKILKKHMSKDPTTQKLRNDLLNIIREKNLAHPVIQNFSYETFQQKMLRFLESHLDDAEPYLLTMAKKALKSESAASSTGKEDKQPAPGPVEKPPREPARQLRNPPTTIGMMTLKAAFKTLSGAQDSEAAFAKLDQKDLVLPTQALPASPALKNKRPRKDENESSAPADGEGGSELQPKNKRMTISRLVLEEDSQSTEPSAGLNSSQEAASAPPSKPTVLNQPLPGEKNPKVPKGKWNSSNGVEEKETWVEEDELFQVQAAPDEDSTTNITKKQKWTVEESEWVKAGVQKYGEGNWAAISKNYPFVNRTAVMIKDRWRTMKRLGMN
B3: Rap1 (other, human, UniProt Q9NYB0 2-399, looked up)
chain: AEAMDLGKDPNGPTHSSTLFVRDDGSSMSFYVRPSPAKRRLSTLILHGGGTVCRVQEPGAVLLAQPGEALAEASGDFISTQYILDCVERNERLELEAYRLGPASAADTGSEAKPGALAEGAAEPEPQRHAGRIAFTDADDVAILTYVKENARSPSSVTGNALWKAMEKSSLTQHSWQSLKDRYLKHLRGQEHKYLLGDAPVSPSSQKLKRKAEEDPEAADSGEPQNKRTPDLPEEEYVKEEIQENEEAVKKMLVEATREFEEVVVDESPPDFEIHITMCDDDPPTPEEDSETQPDEEEEEEEEKVSQPEVGAAIKIIRQLMEKFNLDLSTVTQAFLKNSGELEATSAFLASGQRADGYPIWSRQDDIDLQKDDEDTREALVKKFGAQNVARRIEFRKK
notes: also called human Rap1

What follows are binders tested against T1, human Rif1 (human, UniProt Q5UIP0 1-2472) (assay: co-immunoprecipitation).
T1 construct: Endogenous protein in extracts or fixed cells of human cell lines (e.g. HeLa); It is seen as a >250 kDa polypeptide; the predicted protein has 2472 amino acids and 274 kDa; also called hRif1
T1 sequence (Q5UIP0 other isoform, or with tags, fused parts or gaps limits assumed): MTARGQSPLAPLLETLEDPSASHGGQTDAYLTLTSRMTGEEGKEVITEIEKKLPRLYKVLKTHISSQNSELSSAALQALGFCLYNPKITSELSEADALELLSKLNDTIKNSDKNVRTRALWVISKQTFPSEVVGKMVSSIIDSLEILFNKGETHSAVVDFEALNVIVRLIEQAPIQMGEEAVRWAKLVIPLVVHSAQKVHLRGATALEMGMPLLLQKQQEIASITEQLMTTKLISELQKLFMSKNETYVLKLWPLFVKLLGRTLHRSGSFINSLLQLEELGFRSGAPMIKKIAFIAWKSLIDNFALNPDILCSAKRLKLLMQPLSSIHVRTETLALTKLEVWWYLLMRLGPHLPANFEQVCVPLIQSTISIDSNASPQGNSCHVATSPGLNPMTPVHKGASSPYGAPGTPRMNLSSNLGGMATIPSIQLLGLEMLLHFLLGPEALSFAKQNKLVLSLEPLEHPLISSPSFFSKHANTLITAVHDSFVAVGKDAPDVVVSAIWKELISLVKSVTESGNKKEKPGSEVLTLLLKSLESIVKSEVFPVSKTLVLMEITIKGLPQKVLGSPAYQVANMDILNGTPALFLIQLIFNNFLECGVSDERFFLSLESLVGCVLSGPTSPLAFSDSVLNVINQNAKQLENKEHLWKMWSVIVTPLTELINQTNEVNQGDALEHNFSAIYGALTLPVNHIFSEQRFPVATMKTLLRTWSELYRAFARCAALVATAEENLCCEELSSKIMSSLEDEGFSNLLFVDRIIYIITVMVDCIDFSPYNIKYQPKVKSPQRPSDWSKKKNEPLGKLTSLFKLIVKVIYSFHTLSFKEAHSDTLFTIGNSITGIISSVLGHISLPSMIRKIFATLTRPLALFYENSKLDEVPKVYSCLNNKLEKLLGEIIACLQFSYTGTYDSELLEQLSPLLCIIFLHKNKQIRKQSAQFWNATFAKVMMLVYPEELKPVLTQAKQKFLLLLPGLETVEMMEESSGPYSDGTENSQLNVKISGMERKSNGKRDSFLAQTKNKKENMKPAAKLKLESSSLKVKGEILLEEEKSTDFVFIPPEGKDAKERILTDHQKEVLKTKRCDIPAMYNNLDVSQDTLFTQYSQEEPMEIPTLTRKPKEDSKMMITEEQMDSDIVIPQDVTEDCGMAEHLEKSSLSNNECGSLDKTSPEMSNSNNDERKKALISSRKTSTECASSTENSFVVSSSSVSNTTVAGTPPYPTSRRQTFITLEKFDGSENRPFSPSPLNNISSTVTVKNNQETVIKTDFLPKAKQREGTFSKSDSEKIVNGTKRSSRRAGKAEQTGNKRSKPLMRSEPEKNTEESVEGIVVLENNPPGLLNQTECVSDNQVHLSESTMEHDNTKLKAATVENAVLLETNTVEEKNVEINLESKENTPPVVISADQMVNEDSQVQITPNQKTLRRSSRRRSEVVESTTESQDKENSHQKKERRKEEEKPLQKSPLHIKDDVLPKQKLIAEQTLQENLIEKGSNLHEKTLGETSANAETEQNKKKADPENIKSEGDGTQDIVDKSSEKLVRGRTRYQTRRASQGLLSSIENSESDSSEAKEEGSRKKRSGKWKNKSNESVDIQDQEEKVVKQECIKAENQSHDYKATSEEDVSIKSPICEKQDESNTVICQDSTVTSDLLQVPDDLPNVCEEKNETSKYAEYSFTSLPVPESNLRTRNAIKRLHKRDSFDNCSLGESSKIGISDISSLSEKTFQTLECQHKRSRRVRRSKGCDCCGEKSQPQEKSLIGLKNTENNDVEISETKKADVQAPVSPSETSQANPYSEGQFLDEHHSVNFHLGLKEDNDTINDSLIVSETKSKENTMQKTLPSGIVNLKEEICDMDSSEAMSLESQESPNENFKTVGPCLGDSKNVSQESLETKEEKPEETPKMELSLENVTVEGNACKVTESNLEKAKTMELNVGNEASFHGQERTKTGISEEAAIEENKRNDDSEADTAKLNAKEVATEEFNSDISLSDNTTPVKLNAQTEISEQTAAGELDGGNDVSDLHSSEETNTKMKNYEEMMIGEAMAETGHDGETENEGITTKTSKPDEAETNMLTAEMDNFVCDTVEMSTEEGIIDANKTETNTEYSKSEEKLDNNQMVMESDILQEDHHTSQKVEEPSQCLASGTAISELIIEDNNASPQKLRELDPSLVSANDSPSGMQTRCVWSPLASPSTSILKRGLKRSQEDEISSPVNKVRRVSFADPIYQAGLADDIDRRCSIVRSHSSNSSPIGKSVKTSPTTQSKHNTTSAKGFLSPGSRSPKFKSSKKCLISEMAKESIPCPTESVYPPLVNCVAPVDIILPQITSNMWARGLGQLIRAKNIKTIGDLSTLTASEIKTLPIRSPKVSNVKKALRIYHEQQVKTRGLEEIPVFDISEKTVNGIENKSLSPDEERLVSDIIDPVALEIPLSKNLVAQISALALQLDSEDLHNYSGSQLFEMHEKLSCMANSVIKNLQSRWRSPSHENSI

Binding result, no binding:
B1
B2
B3
